Test results as given in PMC7168936.

Substrate: N[C@@H](COP(=O)(O)O)C(=O)O
Experiment: purified protein, by the assay type
Conditions: other: substrates of PSAT1, optimized conditions; pH 8.5

B1: PSAT1 (Homo sapiens) (protein)
chain: MDAPRQVVNFGPGPAKLPHSVLLEIQKELLDYKGVGISVLEMSHRSSDFAKIINNTENLVRELLAVPDNYKVIFLQGGGCGQFSAVPLNLIGLKAGRCADYVVTGAWSAKAAEEAKKFGTINIVHPKLGSYTKIPDPSTWNLNPDASYVYYCANETVHGVEFDFIPDVKGAVLVCDMSSNFLSKPVDVSKFGVIFAGAQKNVGSAGVTVVIVRDDLLGFALRECPSVLEYKVQAGNSSLYNTPPCFSIYVMGLVLEWIKNNGGAAAMEKLSSIKSQTIYEIIDNSQGFYVCPVEPQNRSKMNIPFRIGNAKGDDALEKRFLDKALELNMLSLKGHRSVGGIRASLYNAVTIEDVQKLAAFMKKFLEMHQL
  Km: 25.1 ± 5.3 μM μM
